Reference: patent US6936431

Target: rat brain farnesyl:protein transferase (rat) (UniProt Q04631)
Test: cell-based or functional assay

CAIL (COOH-terminal tetrapeptide of γ-Subunit of G protein)
Concentration For 50% Inhibition: 100 µM

CVIM with glutamic acid at the A2 position (CVEM) (peptide)
fold decline in affinity: > 50 fold

CVIM with glutamic acid at the X position (CVIE) (peptide)
50% inhibition: > 40 µM

CVIM with glycine at the A2 position (CVGM) (peptide)
50% inhibition: 8 µM

CVIM with glycine at the X position (CVIG) (peptide)
50% inhibition: > 40 µM

CVIM with lysine at the A2 position (CVKM) (peptide)
fold decline in affinity: > 50 fold | fold decrease in affinity against CVIM, estimated by the concentration required for 50% inhibition: > 30 fold

CVIM with lysine at the X position (CVIK) (peptide)
50% inhibition: > 40 µM | fold decrease in affinity against CVIM, estimated by the concentration required for 50% inhibition: > 30 fold
